Reference: the supplement of paper PMC10567573

B1: EHMT1 (parent)
chain: SARQGELQKVLLMLVDGIDPNFKM
B2: FBXO34 (parent)
chain: ASSVESTLPVLEASSWKKQVSHDF

Variants of: B1
Experiment: protein stability index of a GFP-peptide fusion (GPS, HEK-293T) (PSI 1-6); higher = more stable
Conditions: c terminus: a fixed tail appended
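Also: lentivirally expressed fusions sorted by FACS into six bins by GFP to DsRed ratio, PSI derived from sequencing read proportions per bin multiplied by bin number.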

| Variant | protein stability index |
| --- | --- |
| SARQGELQPVLLMLVDGIDPNFKM [K9P] | 1.95 |
| SARQGELQQVLLMLVDGIDPNFKM [K9Q] | 2.37 |
| SARQGELQAVLLMLVDGIDPNFKM [K9A] | 2.51 |
| SARQGELQHVLLMLVDGIDPNFKM [K9H] | 1.62 |
| SARQGELHKVLLMLVDGIDPNFKM [Q8H] | 1.93 |
| SARQGELFKVLLMLVDGIDPNFKM [Q8F] | 3.86 |
| SARQGELIKVLLMLVDGIDPNFKM [Q8I] | 2.01 |
| SARQGELGKVLLMLVDGIDPNFKM [Q8G] | 2.25 |
| SARQGELLKVLLMLVDGIDPNFKM [Q8L] | 3.28 |
| SARQGELPKVLLMLVDGIDPNFKM [Q8P] | 1.76 |
| SARQGELNKVLLMLVDGIDPNFKM [Q8N] | 2.23 |
| SARQGELKKVLLMLVDGIDPNFKM [Q8K] | 1.57 |
| SARQGELDKVLLMLVDGIDPNFKM [Q8D] | 1.43 |
| SARQGELEKVLLMLVDGIDPNFKM [Q8E] | 2.73 |
| SARQGELYKVLLMLVDGIDPNFKM [Q8Y] | 1.76 |
| SARQGELSKVLLMLVDGIDPNFKM [Q8S] | 1.87 |
| SARQGELTKVLLMLVDGIDPNFKM [Q8T] | 2.02 |
| SKRQGELQKVLLMLVDGIDPNFKM [A2K] | 1.22 |
| SIRQGELQKVLLMLVDGIDPNFKM [A2I] | 2.21 |
| SNRQGELQKVLLMLVDGIDPNFKM [A2N] | 3.47 |
| SLRQGELQKVLLMLVDGIDPNFKM [A2L] | 3.91 |
| SPRQGELQKVLLMLVDGIDPNFKM [A2P] | 2.31 |
| SRRQGELQKVLLMLVDGIDPNFKM [A2R] | 1.28 |

| Variant | protein stability index |
| --- | --- |
| SQRQGELQKVLLMLVDGIDPNFKM [A2Q] | 1.78 |
| SERQGELQKVLLMLVDGIDPNFKM [A2E] | 1.86 |
| SSRQGELQKVLLMLVDGIDPNFKM [A2S] | 3.14 |
| SCRQGELQKVLLMLVDGIDPNFKM [A2C] | 3.59 |
| STRQGELQKVLLMLVDGIDPNFKM [A2T] | 3.06 |
| SGRQGELQKVLLMLVDGIDPNFKM [A2G] | 1.02 |
| SMRQGELQKVLLMLVDGIDPNFKM [A2M] | 2.95 |
| SDRQGELQKVLLMLVDGIDPNFKM [A2D] | 1.61 |
| SHRQGELQKVLLMLVDGIDPNFKM [A2H] | 2.27 |
| SFRQGELQKVLLMLVDGIDPNFKM [A2F] | 2.81 |
| SVRQGELQKVLLMLVDGIDPNFKM [A2V] | 1.75 |
| SARQGEVQKVLLMLVDGIDPNFKM [L7V] | 1.03 |
| SARQGEKQKVLLMLVDGIDPNFKM [L7K] | 1.67 |
| SARQGEEQKVLLMLVDGIDPNFKM [L7E] | 2.35 |
| SARQGENQKVLLMLVDGIDPNFKM [L7N] | 1.36 |
| SARQGERQKVLLMLVDGIDPNFKM [L7R] | 2.12 |
| SARQGEMQKVLLMLVDGIDPNFKM [L7M] | 1.27 |
| SARQGETQKVLLMLVDGIDPNFKM [L7T] | 1.62 |
| SARQGEDQKVLLMLVDGIDPNFKM [L7D] | 2.19 |
| SARQGECQKVLLMLVDGIDPNFKM [L7C] | 1.03 |
| SARQGESQKVLLMLVDGIDPNFKM [L7S] | 1.43 |
| SARQGEGQKVLLMLVDGIDPNFKM [L7G] | 1.59 |
| SARQGEYQKVLLMLVDGIDPNFKM [L7Y] | 1.5 |

| Variant | protein stability index |
| --- | --- |
| SARQGEAQKVLLMLVDGIDPNFKM [L7A] | 1.91 |
| SARQGEHQKVLLMLVDGIDPNFKM [L7H] | 3.17 |
| SARQGEPQKVLLMLVDGIDPNFKM [L7P] | 1.84 |
| SARQGEQQKVLLMLVDGIDPNFKM [L7Q] | 1.7 |
| SARQGEIQKVLLMLVDGIDPNFKM [L7I] | 2.81 |
| SARQGEFQKVLLMLVDGIDPNFKM [L7F] | 1.04 |
| SAREGELQKVLLMLVDGIDPNFKM [Q4E] | 1.94 |
| SARDGELQKVLLMLVDGIDPNFKM [Q4D] | 1.61 |
| SARFGELQKVLLMLVDGIDPNFKM [Q4F] | 3.15 |
| SARGGELQKVLLMLVDGIDPNFKM [Q4G] | 1.83 |
| SARAGELQKVLLMLVDGIDPNFKM [Q4A] | 2.27 |
| SARTGELQKVLLMLVDGIDPNFKM [Q4T] | 2.01 |
| SARSGELQKVLLMLVDGIDPNFKM [Q4S] | 1.53 |
| SARPGELQKVLLMLVDGIDPNFKM [Q4P] | 2.15 |
| SARCGELQKVLLMLVDGIDPNFKM [Q4C] | 2.29 |
| SARYGELQKVLLMLVDGIDPNFKM [Q4Y] | 1.94 |
| SARNGELQKVLLMLVDGIDPNFKM [Q4N] | 1.6 |
| SARLGELQKVLLMLVDGIDPNFKM [Q4L] | 3.17 |
| SARMGELQKVLLMLVDGIDPNFKM [Q4M] | 3.05 |
| SARIGELQKVLLMLVDGIDPNFKM [Q4I] | 2.56 |
| SARKGELQKVLLMLVDGIDPNFKM [Q4K] | 1.35 |
| SARQGELQKVLMMLVDGIDPNFKM [L12M] | 3.16 |
| SARQGELQKVLCMLVDGIDPNFKM [L12C] | 2.31 |

| Variant | protein stability index |
| --- | --- |
| SARQGELQKVLFMLVDGIDPNFKM [L12F] | 3.06 |
| SARQGELQKVLKMLVDGIDPNFKM [L12K] | 1.12 |
| SARQGELQKVLHMLVDGIDPNFKM [L12H] | 2.39 |
| SARQGELQKVLAMLVDGIDPNFKM [L12A] | 1.4 |
| SARQGELQKVLNMLVDGIDPNFKM [L12N] | 2.42 |
| SARQGELQKVLPMLVDGIDPNFKM [L12P] | 3.64 |
| SARQGELQKVLGMLVDGIDPNFKM [L12G] | 2.15 |
| SARQGELQKVLDMLVDGIDPNFKM [L12D] | 2.79 |
| SARQGELQKVLEMLVDGIDPNFKM [L12E] | 3.04 |
| SARQGLLQKVLLMLVDGIDPNFKM [E6L] | 1.99 |
| SARQGMLQKVLLMLVDGIDPNFKM [E6M] | 2.91 |
| SARQGPLQKVLLMLVDGIDPNFKM [E6P] | 2.45 |
| SARQGYLQKVLLMLVDGIDPNFKM [E6Y] | 3.65 |
| SARQGILQKVLLMLVDGIDPNFKM [E6I] | 3.51 |
| SARQGSLQKVLLMLVDGIDPNFKM [E6S] | 2.6 |
| SARQGFLQKVLLMLVDGIDPNFKM [E6F] | 2.34 |
| SARQGDLQKVLLMLVDGIDPNFKM [E6D] | 1.69 |
| SARQGTLQKVLLMLVDGIDPNFKM [E6T] | 2.4 |
| SARQGHLQKVLLMLVDGIDPNFKM [E6H] | 2.02 |
| SARQGWLQKVLLMLVDGIDPNFKM [E6W] | 1.89 |
| SARQGQLQKVLLMLVDGIDPNFKM [E6Q] | 1.87 |
| SARQGNLQKVLLMLVDGIDPNFKM [E6N] | 2.15 |

Variants of: B2
Experiment: as above
Conditions: c terminus: a fixed tail appended

| Variant | protein stability index |
| --- | --- |
| ASSVESTLPVLEASSWKKQVSHDW [F24W] | 2.45 |
| ASSVESTLPVLEASSWKKQVSHDV [F24V] | 3.83 |
| ASSVESTLPVLEASSWKKQVSHDY [F24Y] | 3 |
